Measured values reported in patent US20100273722A1, “MODIFIED MINIATURE PROTEINS” (Yale University, priority 2007, published 2010).

Target: Down-regulated Hck kinase (containing an N-terminal His6 tag)
Experiment: cell-based or functional assay

HIV Nef protein
Activity (nmol · sec^-1), activator at 50 micromolar (nmol · sec^-1): 232 | Fold-Activation, activator at 50 micromolar: 21 fold
